In the NTF2 design screens of Basanta et al. (2020):

Assay: protease stability score; higher = more stable; yeast display proteolysis, trypsin and chymotrypsin;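 further: relative to predicted unfolded state with 0 unfolded-like and 1 meaning tenfold more protease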

“SEEEEEFRERLRILYEKLLTGDWRFFLKLADPNVRSIIDGRTWIGRDEFETAMRKFDEDLGFDHTHIRHYHIQGEKVQIHFEVRQGDKRITVEINLVIVNGRYKFVELRLSIH” gave a protease stability score of 1.4.

“SEEEEEFRRAVEFIERTIQTGDERILRELADPHVRLEIGDKHDHGRERVVEIWVSIFEKFKNARWEIRDVKVIDGKIYIDGSLIIDGKEHQTLIVSEKVNGRWHLKSIHIH” gave a protease stability score of 2.17.

Sequence “SEEEEEHEELMRLMESTVRTGDFELFEKLADPNVRINIDGKDVHGREEFLEHWVRRWRDLGVNHLRIEHRRVYNGVIIIKVKILVNGREITLHIEARKVDGRWSVHKVEQH” has a protease stability score of 2.25.

With “SEEEEEIEKMVRHMIHNLLTGNEDVIDKFVDPHVQLHINGRDIHGRENIRREIRRTLEELGVDHWIVHHIEIRRVGDKAIAINHGTIVINGRNVDTEFIFWLHKVNGRWMVHSYEIRIR” the protease stability score was 1.4.

With “SEEEEEIERMFKDWSRAVRTGDEERYDHLADPNVRIHIGDKDVHGRENFIKYLHHIRIRDVRLRDFRIYDGRVELDIEVDRHVNGRDDRTQVIMVLLKFNGQWHVESVYVK” the protease stability score was 1.2.

For “SEEEEEIERYVQHLVHNILTGDWEMIQELADPNAKIDIDGRHFHGREQFVDLMLRLIESLGIDHLRLTHVRIQGDYMELHVEVHVGDKRVELESFATKIDGRWFVKSFTKR”, the protease stability score was 1.97.

For “SEEEEEIKTWTDLFINLWMTGDFHTLVHLLDPNVKAEIDGVDVHGRESVEKMLRIFIKRLGADHSDVRDSSIVNGRLDIELESDVNGRIRTIDIHVLIINGRVKSLKVDIR”, the protease stability score was 2.46.

“SEEEEEIRRTIEMLLKAWQTGDEEFWMRLFDPHYRFEINGKVYHGREVMRLERRRIDYIHRVEYRIDHIDTQGDKVIIRFTLHLDVEFDGVRTELHEHRVIIIEKVNGQWRLKSVEIE” showed a protease stability score of 1.46.

“SEEEEELKKFLDIFLRALRTGDFDESLRLMDPRYRSIVGDKRHIGMENLYRWLTEMRIERVHFELDSFRIQGNKLEIDIRNDVDGQIDGKQFRIEFEVHIHMEKYNGKWVVHVLEIR” gave a protease stability score of 0.932.

In the case of “SEEEEELKRALKIIIEVMLTGDEKTHHELADPHARLEIHQGNYIEHQHGREIVDKVLRDWIEKLGIDHLHLERVDKQGNKLFVHVHVKVGDKHSKLDIVASKVDGRWVLHEVRIIDE”, the protease stability score is reported as 1.84.

Work on “SEEEEELRIANELVKRSLDTGDEDLERELADPNTRVNYGDKILHGRHEVVRWLRRIDHIHVHWRDVRIYNGRIEMDGRLVLRVGDKSFSLETRIYMEKVDGQWVIKDHEIR” yielded a protease stability score of 0.314.

Work on “SEEEEELTKWKKILEEALKTGDWRLIEELFDPHVRFIINGRHIHGMEVRLKEQEELGVNHESQELRDKHIEHQGDKVVINGHLNKIVFVNGKDLHDRYDIIFIYTKINGRWYVKRMIVN” yielded a protease stability score of 0.502.

Work on “SEEEEEMEKVAKRWFWAVLTGNEDELHELLDPEAKSDVNGRDTHGREEVVRLMTEHVEKLGVDHVKVHDVKIQGNKFHFDGILIFNGVTVHSRVELDLINGKVHYMSIKLQ” yielded a protease stability score of 1.1.

For “SEEEEEMERILKYIFRLLTTGNWKELTDNLDPDVRIIIGDKTLIGREEFQRKFKDDHDKFKNMRLEIKDSHMQGDKIIIHLQVDIGDKHFEVIIYVVKINGRWHLKTLEIR”, the protease stability score was 2.09.

“SEEEEEMKLAKRLLENISETGDERELEELLDPNVRIVIGDKHEHGRESVEHWFRRIDHIKHFEIERVTVFDGRVEMHGRMVGTINGKHKNTRITLIAVKINGRWVLQHRILE” gave a protease stability score of 0.245.

“SEEEEEMKRFIEDELRAWRTGDEDLIHEQFDPHVRVIIGEFEYHGRELLHEMFNRIDHIEHIELRIHHVHLQGDKAHLEVEEREHGVFDGKRINVSREINIIIHKIDGRWVHTIIIIE” showed a protease stability score of 0.606.

Sequence “SEEEEEMRFFMEVWIHDLRTGDFESLHKNADPRTRVEINGVELHGREHFTEWAERIKGAKFEVKDFKIQGDKVILHGKFSVNGVEHEMTVIFLKVNGRWLQESMTLK” has a protease stability score of 0.603.

“SEEEEEMRHHLEIFIESLRTGDEDEIANNADPNWINVVGDKENIGREHILTWYERFYEEIRIHDMKIRHVDVQGEKMRVEGELNKDVNGREIRTEHRWEFDIVNGRLRSLQVRVK” gave a protease stability score of 0.919.

With “SEEEEEMRRMVDDIFRMLLTGDWRDFLHLADPTVRLHIGDKQAHGRTQVFELLKLYLHEWREKTIVHESIHHINGVSIIHGSLRVRINGQEHEFKVTWNIFIYDGRLKSMEIRFH” the protease stability score was 0.337.

Work on “SEEEEEMRRWFEILIRAIRTGDEHVLKRLIDPDAQEDVNGKRIHGMEDMSRLLSEMRIKSWEIRRSHFVGNKIELDGHRRGHVNGRDIDDHVIIHILKIDGKWTLHRVEVS” yielded a protease stability score of 2.12.

“SEEEEENRKRVEFFKKVWETGDEHSMEELMDPNVRLRIVVNGRHEHYHGREEVVHILQDELRKIKNVKVNLKRIDVVDGRAHSDIHVDQGDWRMKMEVILIKVNGRWRMKELELHVI” gave a protease stability score of 1.78.

In the case of “SEEEEESKIISKLAIEETKTGDFESIRRNADPRARSDVDGQEMHGRELLEHIFRWIIEKAGVDKVETDLHELRIVGDKVHVRTKLHIGDWRIEVEIIVRKINGRWHLHSMRFSLR”, the protease stability score is reported as 0.646.

Sequence “SEEEEESKYALKIERELLYTGDWHLLTRYADPDVRATINGQKVIGRELFSHIFLEELDKLGMRIHDIRETHWTLINGVAIHHMRINTRQGEKSYHTEMNLISLKVDGRWLIQSYELG” has a protease stability score of 0.523.

Sequence “SEEEEESRFMFELIEHFLKTGNWEMISKLADPNMKTVINGKTYHGREMLIHEFEKLGADHITIHDYKDIDGQVIIHTRIHVGDKTYDVVIISEKVDGKWHLKEIHIR” has a protease stability score of 1.99.

Work on “SEEEEESRHAIEMTLKTLITGDEHMIQDLADPRAQTHYGDKEYHGREELFRLMHEFILKIKNLRIELHDHHIQGDKIILDVRWRFDGKSFHVTIESRKINGRWLHHIFIVK” yielded a protease stability score of 0.582.

Sequence “SEEEEESRKMLELFKELLETGDEEDMTKLADPNVRIIYDGKHLHGRHVAHDVWHELSNRVKNAKFHFDVIKIVGEKVILEITIHVDGQDIESSTILDKFNGKWYMEEVFFH” has a protease stability score of 1.92.

In the case of “SEEEEESRRFMQHMSRSLATGDWRQVRNLLDPHVRTDINGRDLHGWRDYVRHVLELGIKHIHIEDIRLVGDYAHIDGEMDVNGRDVRVHILVLKINGRWVIESEELK”, the protease stability score is reported as 0.427.

Work on “SEEEEETEEVADLHLETLKTGNEDLLEDLLDPNVRVIVNGKHHIGRHFLLKWVTEFGIKHFELKRREIDIQGEKADIHIQGNMYFNGRTVRAHIHQEVTKFDGRWFNHRVEIEFK” yielded a protease stability score of 1.84.

With “SEEEEETRKFAHDLVNIHRTGDERKINDLFDPHVRVHIGNKEIVGRELFARWMHEFLLKHGFTEEIRIDDVDLYGNKAHIDGTLIIRINGVEHRHRVELIVNKINGKWLMEYVRVR” the protease stability score was 1.6.

For “SEEEEEVEEFIHIFTESLKTGDEHSLRRLVDPHVRIEWNGRTHHGWQMFTRLVREARVEIVVRDIRVINGRAIINGELRYEQGDKTFTTEIEIIVVKFDGKWHMHHVRYK”, the protease stability score was 2.21.

With “SEEEEEVHKFMEDLARAYLTGDEKRFRELVDPNVKSNIDGQTIHGREELTKWVSDSAKKYGVDHLEMRVRTINIQGNKAHMDGEIVLEYGDKRVSRQVEIVVTKINGQWLLEREHIH” the protease stability score was 1.88.

In the case of “SEEEEEVLRFLKEWIHRLRTGDEDILRELLDPDVRIEAENRESHGREEATRLLSEIRFEHFFIESIKVQGNKVSIHGRVHGVINGKKFKHHIHIILVKVNGKWQFREIDIH”, the protease stability score is reported as -0.107.

Sequence “SEEEEEVVRIWKLLLELEKTGNEENIARLADPHVRTDINGQESHGREHLAKLVRHLFHEIRIKDFKIRRLELQGEKLIVDGELHGNYDGQHEVVDTEIHIYVVNGKLKSITVRHH” has a protease stability score of 1.47.

“SEEEEEWHRLIEHWMRKWLTGDEERLARLADPNVRLEDENHQSHGREEMARFLHEKILKLGVDHTRIRHYRDQGEYLHLDFEVEINGRRVRVKVHVVIIDGVVKELKFHVE” gave a protease stability score of 1.19.

“SEEEEFAERLVRMFEEELATGDEHKLQRLLDPHVKVEINGREIIGREEWTNHLDHIRLELHDTKLREVRVQGDKIHVHGKTDIIIKVGDKSERHHVEVLFIIKKINGRWILERVHVR” showed a protease stability score of 1.13.

Sequence “SEEEEFARQMMEHFLKNFITGNEELFKENLDPDVRIIIVVNGREFENVGREHFWHHFRRSFEELGVKHLHLKDIRVINGRLFLFAEIEIGDKRVELHFLVLKVDGKWVIEELHIKFL” has a protease stability score of 2.32.

Sequence “SEEEEFLEKLMREFVHDLLTGDEDRIRELADPHVKFEMDVNGVRFRAHGREEMLRELRRFWKEIRVKHIQTHDVKNVGDKAHSDVREVVEVDGREERHESEIIVVTINGRMQSVVLIFK” has a protease stability score of 1.52.

“SEEEEFSHNLLNFMLHVIHTGDFDLLLDLMDPDTRVDINGKRHHGRDAMRIWVTLLGIERVETDVHHISIYGDKARIDGRVHYNGKTQRFEIHSRKIDGKWLNTEIKWD” gave a protease stability score of 1.09.

Work on “SEEEEFTKLLLELLAHALRTGDESMLQYLADPNVRIDINGKELHGMEVLTHWLRRIDHIDSFFHIDHIDLVDGKLKVNGRTELIVRQGDKSHHSEWDVRIISDKVNGRWLLESISFK” yielded a protease stability score of 2.08.

In the case of “SEEEEFVELAVRLFLETMRTGDEKDINRLADPHTRNIVNGRDIIGREELTRQLHEILHFFKNVQVHIEEVRWQGNYIVLKILWNFDGQTMEVHVYARKIDGRWVETEFEFR”, the protease stability score is reported as 2.08.

For “SEEEEFVEVAIKIVQEIRKTGDEDEQERLADPHVRFDINGQDIHGREKWTKWVHEIRVRMKHVRERHITVINGKAHIHGEVDVHFHVNGVELRIDTKYTVVIEKVNGRWRLREVHLV”, the protease stability score was 2.22.

“SEEEEFWKHIAKVMLDLVTTGNEDLFMKMADPNTKSEFNGRTVVGRERIAEILKKFKNITIIIHHIDIQGEKVRIHGRVLIGDKEIEDDWELVVVDGKIQRLHFEHV” showed a protease stability score of 1.29.

In the case of “SEEEEHAEELIRLELEALLTGDEEHMARNLDPNVRININGKDIVGREEVSRFLKHLRVRSIHIEIKDFRVIGNWLHVDGRVHFHGHFDGRKIDSTTQFHMILVKINGRWFIHSVKFQ”, the protease stability score is reported as 2.6.

“SEEEEHAKHIARLWMESFYTGDEHHMSHLLDPNVRIIIEIGDKSDEFHGREETVKWVRKYLREMRLKNFEIHDQRVFNGVANDDTIVHGNVDGRERNIRTHIIIVVVNGRVKEVKVEVK” gave a protease stability score of 1.6.

Sequence “SEEEEHEKEVIKRIREAMLTGDEDTLRHLLDPNVRVNIDGVEIVGMEMILRHLREIRVSIKDLKVTHVRSVNGRVEADTRSHLIIIIGDKKYEEESETRFFILKIDGRWLLTTIEFK” has a protease stability score of 1.49.

For “SEEEEHIHRLARLYWRLWETGDEETLAHLMDPNVRQIIHVGDKEFHNVGREKIIKVTKHVFEKLGVKHIKIRDMRVINGVVEIDTEVNVDGRTFDTRIKVLIVDGRIHELRWIVE”, the protease stability score was 1.65.

“SEEEEHIREFWNLLLRAYRTGDEKQLRELFDPHVRIHINGKEIHGMEDMIRHIREIRVIITHLELREFSFFNGRAHVDGERDLRITVGEFHRSHRTDVTIITEKVNGQWRIEEVRVH” showed a protease stability score of 1.46.

With “SEEEEHIREHSERFIEAWKTGDWEELSRMIDPHARIVVNGKEVHGRSDIERMLRETMEKMGANHIQEESVHYQGNKIILHETVNVGDKRLRLTIVIHVVNGKVRRVEFHIEQR” the protease stability score was 2.17.

“SEEEEHLDHALKNIIDLIRTGDENLQRELFDPRVRLVVGDKEFHGWETVVHRLREMRFKDFHVRRERIVGDKVHIDVEVNGNVDGRDDVMRMEIRIDKVNGQWRTKNVILN” showed a protease stability score of 2.05.

Sequence “SEEEEHLLKWFEELITLLLTGDEDRLSELMDPNVRIEIGDKTLVGMEWANHDYTRKIRERGWRIEIIIRELRAQGDKVRARTELRIRFDGREITYETEMILVVVNGRFKRIETRVH” has a protease stability score of 1.46.
